The results in this text go back to publication PMC7525497, “Antibodies from Sierra Leonean and Nigerian Lassa fever survivors cross-react with recombinant proteins representing Lassa viruses of divergent lineages” (Scientific Reports, 2020).

The series concerns the molecule itself. Briefly: SDS-PAGE and western blotting. In general terms: In western blotting, separated proteins are transferred to a membrane and probed.

B1: LASV Zinc protein (Z), lineage IV (natural protein)
chain: MGNKQAKAPESKDSPRASLIPDATHLGPQFCKSCWFENKGLVECNNHYLCLNCLTLLLSVSNRCPICKMPLPTKLRPSAAPTAPPTGAADSIRPPPYSP
notes: also called Z protein; lineage IV Z
On to B1, for which the binding result is on record as “binds”.
